Results as given in patent US20220406376A1 (MacroGenics, published 2022).

B1: TRIDENT-B2 (bispecific antibody, human IgG1, kappa, L234A L235A)
chain 1: DIQMTQSPSSLSASVGDRVTITCRPSQDISNYLNWYQQKPDKTVKLLIYYTSRLRSGVPSRFSGSGSGTDFTFTISSLQPEDIATYFCQQGDTLPYTFGQGTKLEIKGGGSGGGGQVQLVQSGAEVKKPGASVKVSCKASGYTFTSYWINWVKQAPGQGLEWIGNIYPSDSYTNYNQKFKDKATITADKSTSTAYMELSSLRSEDTAVYYCTRDYGSAYSMSTWGQGTTVTVSSASTKGEVAACEKEVAALEKEVAALEKEVAALEKGGGDKTHTCPPCPAPEAAGGPSVFLFPPKPKDTLMISRTPEVTCVVVDVSHEDPEVKFNWYVDGVEVHNAKTKPREEQYNSTYRVVSVLTVLHQDWLNGKEYKCKVSNKALPAPIEKTISKAKGQPREPQVYTLPPSREEMTKNQVSLWCLVKGFYPSDIAVEWESNGQPENNYKTTPPVLDSDGSFFLYSKLTVDKSRWQQGNVFSCSVMHEALHNHYTQKSLSLSPGK
chain 2: DIQMTQSPSSLSASVGDRVTITCRPSQDISNYLNWYQQKPDKTVKLLIYYTSRLRSGVPSRFSGSGSGTDFTFTISSLQPEDIATYFCQQGDTLPYTFGQGTKLEIKGGGSGGGGQVQLVQSGAEVKKPGASVKVSCKASGYTFTSYWINWVKQAPGQGLEWIGNIYPSDSYTNYNQKFKDKATITADKSTSTAYMELSSLRSEDTAVYYCTRDYGSAYSMSTWGQGTTVTVSSASTKGKVAACKEKVAALKEKVAALKEKVAALKE
heavy: QVQLVQSGAEVKKPGASVKVSCKASGYTFTSFWMHWVRQAPGQGLEWMGRIDPNRGGTEYNEKAKSRVTMTADKSTSTAYMELSSLRSEDTAVYYCAGGNPYYPMDYWGQGTTVTVSSASTKGPSVFPLAPSSKSTSGGTAALGCLVKDYFPEPVTVSWNSGALTSGVHTFPAVLQSSGLYSLSSVVTVPSSSLGTQTYICNVNHKPSNTKVDKRVEPKSCDKTHTCPPCPAPEAAGGPSVFLFPPKPKDTLMISRTPEVTCVVVDVSHEDPEVKFNWYVDGVEVHNAKTKPREEQYNSTYRVVSVLTVLHQDWLNGKEYKCKVSNKALPAPIEKTISKAKGQPREPQVYTLPPSREEMTKNQVSLSCAVKGFYPSDIAVEWESNGQPENNYKTTPPVLDSDGSFFLVSKLTVDKSRWQQGNVFSCSVMHEALHNRYTQKSLSLSPGK
light: DIQMTQSPSSLSASVGDRVTITCRASQGISNYLAWFQQKPGKAPKSLIYRANRLQSGVPSRFSGSGSGTDFTLTISSLQPEDVATYYCLQYDDFPWTFGQGTKLEIKRTVAAPSVFIFPPSDEQLKSGTASVVCLLNNFYPREAKVQWKVDNALQSGNSQESVTEQDSKDSTYSLSSTLTLSKADYEKHKVYACEVTHQGLSSPVTKSFNRGEC
B2: TRIDENT-3 (other)
chain 1: DIQMTQSPSTLSASVGDRVTITCRASQSVGYMHWYQQKPGKAPKLLIYDTSKLASGVPSRFSGSGSGTEFTLTISSLQPDDFATYYCFQGSGYPFTFGGGTKLEIKGGGSGGGGEVKLDETGGGLVQPGRPMKLSCVASGFTFSDYWMNWVRQSPEKGLEWVAQIRNKPYNYETYYSDSVKGRFTISRDDSKSSVYLQMNNLRVEDMGIYYCTGSYYGMDYWGQGTSVTVSSASTKGEVAACEKEVAALEKEVAALEKEVAALEKGGGDKTHTCPPCPAPEAAGGPSVFLFPPKPKDTLMISRTPEVTCVVVDVSHEDPEVKFNWYVDGVEVHNAKTKPREEQYNSTYRVVSVLTVLHQDWLNGKEYKCKVSNKALPAPIEKTISKAKGQPREPQVYTLPPSREEMTKNQVSLWCLVKGFYPSDIAVEWESNGQPENNYKTTPPVLDSDGSFFLYSKLTVDKSRWQQGNVFSCSVMHEALHNHYTQKSLSLSPGK
chain 2: DVVMTQTPFSLPVSLGDQASISCRSSQSLVHSNGNTYLRWYLQKPGQSPKVLIYKVSNRFSGVPDRFSGSGSGTDFTLKISRVEAEDLGVYFCSQSTHVPWTFGGGTKLEIKGGGSGGGGQVTLRESGPALVKPTQTLTLTCTFSGFSLSTSGMSVGWIRQPPGKALEWLADIWWDDKKDYNPSLKSRLTISKDTSKNQVVLKVTNMDPADTATYYCARSMITNWYFDVWGAGTTVTVSSASTKGKVAACKEKVAALKEKVAALKEKVAALKE
heavy: B1 heavy
light: B1 light

How the values were obtained:
[1] = target: T1, 5T4 on the surface of target cells (JIMT-1, SKOV-3) (UniProt Q13641 32-420, limits assumed); assay: flow cytometry on JIMT-1 (5T4 hi) cells, anti-hFc APC MFI
T1 construct: whole, on cells
T1 sequence (looked up): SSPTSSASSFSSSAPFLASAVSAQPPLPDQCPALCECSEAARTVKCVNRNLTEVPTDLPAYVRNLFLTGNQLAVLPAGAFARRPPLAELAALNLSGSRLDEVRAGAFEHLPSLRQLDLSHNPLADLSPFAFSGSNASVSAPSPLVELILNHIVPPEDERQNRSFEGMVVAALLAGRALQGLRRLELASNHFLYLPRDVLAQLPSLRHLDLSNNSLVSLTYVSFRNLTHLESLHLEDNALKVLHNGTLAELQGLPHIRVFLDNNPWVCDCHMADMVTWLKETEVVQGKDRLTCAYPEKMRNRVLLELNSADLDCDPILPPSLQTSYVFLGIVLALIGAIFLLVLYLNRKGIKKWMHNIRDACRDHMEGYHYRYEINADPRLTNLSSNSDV

[2] = target: T2, CD137 on the surface of cells (activated human T cells; engineered CHO cells) (human, UniProt Q07011 24-255); assay: flow cytometry on activated CD8+ T cells (donor D59788, CD8 FITC), anti-hFc APC MFI
T2 construct: whole, on cells; also called human CD137; cell surface expressed CD137

[3] = target: T1, 5T4 on the surface of target cells …; assay: flow cytometry on SKOV-3 (5T4 lo) cells, anti-hFc APC MFI

T2 sequence (Q07011 24-255, change not shown): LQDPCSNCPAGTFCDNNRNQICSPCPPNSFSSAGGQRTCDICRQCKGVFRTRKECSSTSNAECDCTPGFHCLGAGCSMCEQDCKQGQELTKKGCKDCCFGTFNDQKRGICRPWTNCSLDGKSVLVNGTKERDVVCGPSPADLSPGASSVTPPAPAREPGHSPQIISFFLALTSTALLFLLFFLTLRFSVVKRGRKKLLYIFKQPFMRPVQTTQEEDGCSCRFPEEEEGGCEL

Binder	EC50 (read off the curve) [1] [µg/mL]	EC50 (read off the curve) [2] [µg/mL]	EC50 (read off the curve) [3] [µg/mL]
B1	~0.08	~0.007	~0.04
B2	~0.08		~0.04
